Experimental data as given in PMC4844822.

Target: T1, oxidized wild type Prdx6 (H2O2-treated, over-oxidized protein) (human), P30041
T1 chain: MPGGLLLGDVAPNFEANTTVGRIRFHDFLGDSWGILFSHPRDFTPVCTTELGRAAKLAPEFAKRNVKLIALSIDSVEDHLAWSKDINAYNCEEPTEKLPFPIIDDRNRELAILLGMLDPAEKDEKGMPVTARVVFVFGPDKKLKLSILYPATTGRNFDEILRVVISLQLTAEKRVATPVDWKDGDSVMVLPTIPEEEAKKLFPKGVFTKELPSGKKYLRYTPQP
Experiment: AUC
Conditions: remark: other sources report otherwise

- stoichiometry N: 2
B1: oxidized wild type Prdx6 (H2O2-treated, over-oxidized protein), P30041 1-224 (natural protein)
chain: T1 chain
modifications: here or on the partner: C47 over-oxidized (-SOOH/-SOOOH) by H2O2 treatment; C47 over-oxidized (-SOOH/-SOOOH) by H2O2 treatment
